# Results published in the nanobody polyreactivity screen of Harvey et al. (2022).
# Experiment: yeast display, Sf9 membrane polyspecificity reagent, FACS + sequencing; frameworks hold sequencing errors
# Procedure, shortened: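 Synthetic nanobody libraries on Saccharomyces cerevisiae BJ5465 were galactose-induced for 36–48 hours, stained 1 hour at 4 °C with 10% biotinylated, detergent-solubilized Sf9 membrane reagent and enriched on streptavidin microbeads. FACS then separated cells into low and high (top ~1%) gates by anti-HA (expression) and streptavidin (reagent binding) fluorescence. Genes were colony-PCR amplified, MiSeq 2 × 250 sequenced and CDR-length filtered. A clone's polyreactivity label is that of its gate of origin.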
row,Sequence,polyreactivity (PSR sort gate)
1,QVQLVESGGGLVQAGGSLRLSCAASGSTFYTNAMGWDRPAPGKEREVVAAISWSGSSTYADSVKGRFTISRDNAKNTVYLQMNSLKPEDTAVYYCAADWFKLRTDYYWGQGTQVTVSS,low polyreactivity
2,QVQLVESGGGLVQAGGSLRLSCAASGRTFAYYAMGWYRQAPGKERELVATISWTTGSTYYADSVKGRFTISRDNAKNTVYLQMNSLKPEDTAVYYCNKRYNNPYWYPGRYPYDYWGQGTQVTVSS,high polyreactivity
3,QVQLVESGGGIVQAGGRLRLSCAASGSTFFKYARGWYRQAPGKERELVATMSGTGGRTYYADSVKGRFTISRDNAKNTVYLQMNSLKPEDTAVYYCAAGIYRPFFYTLDYWGQGTQVTVSS,low polyreactivity
4,QVQIVESGGALVQAGGSLSLSCAASRSTFYRNDMGWYRQAPGKEREFVAAISFRGGGTYADSVKGRFTISRDNAKITVYLQMNSLKPEDTAVYYCAADHLSYRRRYEYWGQGTQVTVSS,low polyreactivity
5,QVQLIESGGGLVQAGGSLRLSCAASGIIFYDYAMGWYRPAPGKERELVATITSGGSTNYADSVKGRFTISRDNAKNTVYLQMNSLKPEDTAVYYCAAGRGLILGGVYGYDYWGQGTQVTVSS,low polyreactivity
6,QVQLVESGGCLVQAGGSLRLSCAASGRIFRRYAMGWYRQAPGKERELVASITCGGSSTSYADSVKGRFTISRDNAKNTVYLQMNSLKPEDTAVYYCAKGGVFGTYLNEYDYCGQGTQVTVSS,low polyreactivity
7,QVQLVESGGGLVQAGGSLRLSCAASGRIFQTYTMGWYRQAPGKERELVARITGGDSTYYADSVKGRFTISRDNAKNTVYLQMNSLKPEDTAVYYCAGEVWSYWGTFNYWGQGTQVTVSS,low polyreactivity
8,QVQLVESGGGLVQAGGSLRLSCAASGSIIQGYAMGWYRQAPGKERELVAVITTSGGSTYYADSVKGRFTISRDNAKNTVYLQMNSLKPEDTAVYYCAVGLLVYSRTYIGQAYFRYNYWGQGTQVTVSS,high polyreactivity
9,QVQLVESGGGLVQAGGSLRLSCAASGTTFSGNAMGWYRQAPGKERELVAAITRSGSRTYYADSVKGRFTISRDNAKNTVYLQMHSLKPEDTAVYYCAKVGRTGDDYYYWGQGTQVTVSS,high polyreactivity
10,QVQLVESGGGLVQAGGSLRLSCAASGSTFVQYVMGWYRQAPGKERELVAAISSSGGSTYYADSVKGRFTISRDNAKNTVYLQMNSLKPEDTAVYYCAAYYFVAQARYDYWGQGTQVTVSS,high polyreactivity
11,QVQLVESGGGLVQAGGSLRLSCAASGRIFSSYAMGWYRQAPGKERELVAAISGSGGRTYYADSVKGRFTISRDNAKNTVYLQMNSLKPEDTAVYYCNARRRSPYSTGVAYDYWGQGTQVTVSS,high polyreactivity
12,QVQLVESGGGLVQAGGSLRLSCAASGIIFDLNAMGWYRQAPGKERELVAAISSGGGTYYADSVKGRFTISRDNAKNTVYLQMNSLKPEDTAVYYCNRVTRWTYNYWGQGTLVTVSS,high polyreactivity
13,QVQLVESGGGLVQAGGSLRFSCAASGINFYFNAMGWYRQAPGKERELVAVITSGGSTNYADSVKGRFTISRDNAKNTVYLQMNSLKPEDTAVYYCATDKSYSSWSAQYVYWGQGTQVTVSS,low polyreactivity
14,QVQLVESGGGLVQAGGSLRLSCAASGRTFDVYAMGWYRQAPGKERELVAAISKRGGSTYYADSVKGRFTISRDNAKNTVYLQMNSLKPEDTAVYYCNAYQTGWKGYDYWGQGTQVTVSS,high polyreactivity
15,QVQLVESGGGLVQAGGSLRLSCAASGRIFRYNAMGWYRQAPGKERELVATISWSGGRTYYADSVKGRFTISRDNAKNTVYLQMNSLKPEDNAVYYCAAYSYRGFGEYDYWGQGTQVTVSS,high polyreactivity
16,QVQLVESGGGLVQAGGSLRLSCAASGIIIPYYAMGWYRQAPGKERELVAAISSGGSTNYADSVKGRFTISRDNAKNTVYLQMNSLKPEDTAVYYCAAKYTSYASWPIWVVDQFDYWGQGTQVTVSS,low polyreactivity
17,QVQRVESGGGLVQAAASLRLSCAASGRTFYVYTMGWYRPAPGKERELVAAITSGGSTNYADSVKGRFTISRDNAKNTVSLHMNSLKPEVTAVYYCAARVSTVFKRYYYWGQGTQVTVSS,high polyreactivity
18,QVQLVESGGGLVQAGGSLRLSCAASGRIFHYYAMGWYRQAPGKERELVAGITSGGSTYYADSVKGRFTISRDNAKNTVYLQMNSLKPEDTAVYYCATTRYGGSRRYRPYDRERDYWGLGTQVTVSS,low polyreactivity
19,QVQLVESGGGLVQAGGSLRLSCAASGYTLGDYAMGWYRQAPGKERELVAAISSGGITSYADSVKGRFTISRDNAKNTVYLQMNSLKPEDTAVYYCNAAIVGFTRAYQYDYWGQGTQVTVSS,high polyreactivity
20,QVQLVESGGGLVQAGGSLRLSCAASGRIFAPYDMGWYRQAPGKERELVASITSGGSTNYTDSVKGRFTISRDNAKNTVYLQMNSLKPEDTAVYYCNTAKISEPTDPLQRVWGGTYDYWGQGTQVTVSS,low polyreactivity
21,QVQLVESGGGLVQAGGSLRLSCAASGSTFTGYAMGWYRPAPGKERELVAGITGSGGSTYYADSVKGRFTISRDNAKNTVYLQMNSLKPEDTAVYYCAAELYDYGDLYYSEYDYWGQGTQVTVSS,low polyreactivity
22,QVQLVESGGGLVQAGGSLRLSCAASGRIFTPYAMGWYRQAPGKEREFVATISFRGDSTYYADSVKGRFTISRDNAKNSVYLQMNSLKPEDTAVYYCAARQYGGYGYWGQGTQVTVSS,high polyreactivity

row,Sequence,polyreactivity (PSR sort gate)
1,QLQLVESGGGLVQAGGSLRLSCAASGSTFVYNAMGWYRQAPGKERELVAAISTGGSTYYADSVKGRFTISRDNAKNTVYLQMNSLKPEDTAVYYCAAGYSWGYSSQKLRYGYWGQGTQVTVSS,high polyreactivity
2,QVQLVESGGGLVQAGGSLRLSCAASGSTFPYYAMGWYRQAPGKERELVAAITSSASTYYADSVKGRFTISRDNAKNTVYLQLNSPKPEDTADYYCPVRSPYRLSPWRVGYWGQGTQVTVSS,high polyreactivity
3,QVQLVESGGGLVQAGGSLRLSCAASGRIFSFNAMGWYRQAPGKERELVAAISWSTGSTFYADSVKGRFTISRDNAKNTVYLQMNSLKPEDTAVYYCAREYYYRRGFFLRGYWGQGTQVTVSS,high polyreactivity
4,QVQLVESGGGLYQAGGSLRLSCAASGRIFYCYAMGSYRQAPGKERELVAAISWRGGRTYYADSVKGRFTISRDNAKNTVYLQMNSLIPEDTAVYYCNTDFPPQGQLRNMSYWGQGTQVTVSS,high polyreactivity
5,QVQLVESGGGLVQAGGSLRLSCAASGRTFGKYAMGWYTQAPGKEREFVAAISWSGATTRYADSVKGRFTISRDNAKNTVYLQMNSLKPEDTAVYYCAATYYYVYGYRGDYWGQGTQVTVSS,high polyreactivity
6,QVQLVESGGGLVQAGGSLRLSCAASGFIFQGYVMGWYRQAPGKEREFVAAISRSGGTTFYADSVKGRFTISRDNAKNTVYLQMNSLKPEDTAVYYCNRARLGRPGYDYWGQGTQVTVSS,high polyreactivity
7,QVQLVESGGGLVQAGGSLRLSCAASGFTFTYYALGWYRQAPGKERQLVAAISSRGGRTYYADSVKVRFRISRDNAKNTVYLLMKSLKPEDTAVYYCAARVYKGWPTHYDYLGQGTQVTVSS,high polyreactivity
8,QVQLGESGGGLVQAGGSLRLSCAASGSTFVVYAMGWYRQAPGKERELVAAITRGASTTYADSVKGRFTISRDNAKNTVYLQMNSLKPEDTAVYYCAAAVAYEYLQSAYTRYYYWGQGTQVTVSS,high polyreactivity
9,QVQLVESGGGLVQAGGSLRLSCAASGSTFWHNAMGWYRQAPGKERELVAAISYSGGNTNYADSVKGRFTISRDNAKNTVYLQMNSLKPEDTAVYYCNAPDVFPQAIYDYWGQGTQVTVSS,high polyreactivity
10,QVQLVESGGGLVQAGGSLRLSCAASGSTFVRNAMGWYRQAPGKERELVAAISRSGGRTYYADSVKGRFTISRDNAKNTVYLQMNSLKPEDNAVYYCNAVLGYYSYDYWGQGTQVTVSS,high polyreactivity
11,QVQLVESGGGLVQAGGSLRLSCAASGRTFAGYAMGWYRQAPGKERELVAAISTRGGSTYYADSVKGRFTISRDNAKNTVYLQMNSLKPEDTAVYYCAATKPKFYQFDYWGQGTQVTVSS,high polyreactivity
12,QVQLVESGGGLVQAGGSLRLSCAASGFIFLVNAMGWYRRGPGTERELVAAISKSTGGTYYADSVKGRFTISRDNAKNTVYLQMNSLKPEDTAVYYCAADEVYPVQRDMDYWGQGTQVTVSS,low polyreactivity
13,QVQRVESGGGLVQAGGSLRLSCDASGFTFVPYAMGWYRQAPGKERELVAAISWRRGSTYYADSVKGRFTISRDNAKNTVYLQMNSLKPEDTAVYYCARKGYHYSETSAIFALYDYWGQGTQVTVSS,high polyreactivity
14,QVQLVESGGGLVQAGGSLRLSCAASGSIFTRNAMGWYITAPGKEREFVAAISSSGVSTYYADSVKGRLTISRDNAKNTVYLQMNSLKPEDTAVYYCAARWGTKSGRYDYWGQGTQVTVSS,high polyreactivity
15,QVQLVESGGGLVQAGGSLRLSCAASGITFAYNTMGWYRQAPGKERELVAGISVSGASTYYADSVKGRFTISRDNAKNSVYLQMNSLKPEDTAVYYCAAPRWVANQYREYDYWGQGTQVTVSS,high polyreactivity
16,QVQLVESGGGLVQAGGSLRLSCAASGFYNTMGWYRQAPGKERELVAAISTGGITNYADSVKGRFTISRDNSKNTFYFQMKSLIPEDTAVYYCAADGYSTVSSTYDYWGQGTQVTVSS,low polyreactivity
17,QVQLVESGGGLVQAGGSLRLSCAASGRTFVYYAMGWYRQAPGKERELVARISSSGGRTSYADSVKGRFTISRDNAKNTVYLQMNRLKPEDTAVYYCNAGRYRAGGWGVGEGYWGQGTQVTVSS,high polyreactivity
18,QVQLVESGAGLVQAGGSLRLSSAASGGTFGHYVMGWYRPAPGKERELVAVISRRGGSTYYADSVKGRFTISRDTAKNTVYLQMNSLKPEDTAVYYCAAYQDVSYFKYSPYDYWGQGTQVTVSS,high polyreactivity
19,QVQLVESGGGLVQAGGSLRLSCAASGSTYAGNAIGWSRQAPRKERELVAAIDSSTGSTYYADSVKGRFTISRDNAKNTVYLQMNSLNPEDTAVYYCNKTSFLVKLDYWGQGTQVTVSS,low polyreactivity
20,QVQLVESGGGLVQAGGSLRLSCAASGSIFAYYAMGWYRQAPGKEREIVAAISKRGGRTYYADSVKGRFTISRDNAKNTVYLQMNSLKPEDTAVYYCATVGVRTNLNRYGYWGQGTQVTVSS,high polyreactivity
21,QVQLVESGGGLVQAGGSLRLSCAASGRTFYDNVMGWYRQAPGKERELVAAISSGGSTNYADSVKGRFTISRDNAKNTVYLQMNSLIPEDTAVYYCATNGGGGWAYEYWGQGTQVTVSS,low polyreactivity
